Experimental data published in paper PMC9482650, “Quantitative fragmentomics allow affinity mapping of interactomes” (Nature Communications, 2022).

T1: SNTB1, Q13884
T1 sequence (Q13884 107-205, limits assumed, looked up): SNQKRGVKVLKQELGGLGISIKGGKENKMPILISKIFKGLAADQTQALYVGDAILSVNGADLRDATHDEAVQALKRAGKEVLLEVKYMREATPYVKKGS

T2: DLG3_3, Q92796
T2 sequence (Q92796 374-475, limits assumed, looked up): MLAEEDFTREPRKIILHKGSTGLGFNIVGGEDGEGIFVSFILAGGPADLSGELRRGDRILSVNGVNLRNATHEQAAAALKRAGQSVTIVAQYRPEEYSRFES

T3: APBA2_2, Q99767
T3 sequence (Q99767 654-744, limits assumed, looked up): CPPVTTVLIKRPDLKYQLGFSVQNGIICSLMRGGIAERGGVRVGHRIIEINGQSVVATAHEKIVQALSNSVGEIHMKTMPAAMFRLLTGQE

T4: NHERF3_3, Q5T2W1
T4 sequence (Q5T2W1 238-333, limits assumed, looked up): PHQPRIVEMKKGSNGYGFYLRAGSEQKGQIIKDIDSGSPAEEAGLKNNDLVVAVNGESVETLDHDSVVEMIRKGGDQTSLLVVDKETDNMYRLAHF

T5: MPP2, Q14168
T5 sequence (Q14168 180-250, limits assumed, looked up): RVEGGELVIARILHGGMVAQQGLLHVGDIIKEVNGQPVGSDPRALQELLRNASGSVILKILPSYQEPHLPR

T6: APBA2_1, Q99767
T6 sequence (Q99767 563-664, limits assumed, looked up): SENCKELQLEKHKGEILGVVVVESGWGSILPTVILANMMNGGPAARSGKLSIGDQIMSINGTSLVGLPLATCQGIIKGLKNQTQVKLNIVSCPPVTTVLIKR

T7: MPDZ_5, O75970
T7 sequence (O75970 695-796, limits assumed, looked up): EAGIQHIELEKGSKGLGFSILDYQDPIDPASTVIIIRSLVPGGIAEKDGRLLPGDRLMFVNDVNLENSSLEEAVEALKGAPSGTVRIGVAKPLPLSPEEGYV

T8: ARHGEF11, O15085
T8 sequence (O15085 42-136, limits assumed, looked up): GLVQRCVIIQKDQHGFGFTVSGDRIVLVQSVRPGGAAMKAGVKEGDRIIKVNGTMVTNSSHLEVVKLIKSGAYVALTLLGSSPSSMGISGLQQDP

T9: GRIP1_2, Q9Y3R0
T9 sequence (Q9Y3R0 145-248, limits assumed, looked up): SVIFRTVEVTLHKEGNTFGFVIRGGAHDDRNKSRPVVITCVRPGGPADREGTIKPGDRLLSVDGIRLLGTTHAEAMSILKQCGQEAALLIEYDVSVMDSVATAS

T10: GRIP1_5, Q9Y3R0
T10 sequence (Q9Y3R0 568-668, limits assumed, looked up): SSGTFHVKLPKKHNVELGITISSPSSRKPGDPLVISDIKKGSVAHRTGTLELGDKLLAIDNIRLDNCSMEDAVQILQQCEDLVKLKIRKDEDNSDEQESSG

T11: APBA1_1, Q02410
T11 sequence (Q02410 651-752, limits assumed, looked up): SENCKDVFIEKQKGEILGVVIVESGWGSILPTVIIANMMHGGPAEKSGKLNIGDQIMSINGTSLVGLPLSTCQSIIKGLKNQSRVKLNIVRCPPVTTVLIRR

T12: DFNB31_1, Q9P202
T12 sequence (Q9P202 135-233, limits assumed, looked up): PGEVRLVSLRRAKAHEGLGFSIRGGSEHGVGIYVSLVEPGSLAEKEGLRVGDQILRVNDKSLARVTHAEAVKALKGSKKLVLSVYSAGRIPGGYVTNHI


Legend:
Assay in all cases: holdup assay
Set-up in all cases: key: below the threshold = too weak to quantify, mostly under pKd 3.1 to 4
Details in all cases: plain residues with an end cap or a label only (N-terminal biotin on a linker: ado-ado)
[1] = molecular target: T1, SNTB1, Q13884
[2] = molecular target: T2, DLG3_3, Q92796
[3] = molecular target: NHERF4_4, Q86UT5
[4] = molecular target: T3, APBA2_2, Q99767
[5] = molecular target: FRMPD4, Q14CM0
[6] = molecular target: GORASP2, Q9H8Y8
[7] = molecular target: CASK, O14936
[8] = molecular target: TJP1_3, Q07157
[9] = molecular target: T4, NHERF3_3, Q5T2W1
[10] = molecular target: LNX1_2, Q8TBB1
[11] = molecular target: DLG1_2, Q12959
[12] = molecular target: DLG4_1, P78352
[13] = molecular target: IL16_1, Q14005
[14] = molecular target: T5, MPP2, Q14168
[15] = molecular target: T6, APBA2_1, Q99767
[16] = molecular target: T7, MPDZ_5, O75970
[17] = molecular target: GRID2IP_2, A4D2P6
[18] = molecular target: GOPC, Q9HD26
[19] = molecular target: T8, ARHGEF11, O15085
[20] = molecular target: T9, GRIP1_2, Q9Y3R0
[21] = molecular target: T10, GRIP1_5, Q9Y3R0
[22] = molecular target: IL16_3, Q14005
[23] = molecular target: T11, APBA1_1, Q02410
[24] = molecular target: DLG1_3, Q12959
[25] = molecular target: LNX1_1, Q8TBB1
[26] = molecular target: T12, DFNB31_1, Q9P202

IL16_1, Q14005, sequence (Q14005 210-306): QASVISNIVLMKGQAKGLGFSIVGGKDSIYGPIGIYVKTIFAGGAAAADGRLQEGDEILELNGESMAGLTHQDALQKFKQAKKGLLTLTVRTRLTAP
DLG4_1, P78352, sequence (P78352 62-152): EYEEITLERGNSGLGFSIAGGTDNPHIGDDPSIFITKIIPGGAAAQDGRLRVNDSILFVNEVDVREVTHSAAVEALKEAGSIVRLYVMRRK
CASK, O14936, sequence (O14936 487-570): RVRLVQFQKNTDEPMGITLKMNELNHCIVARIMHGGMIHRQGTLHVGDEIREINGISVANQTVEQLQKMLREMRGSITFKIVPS
LNX1_1, Q8TBB1, sequence (Q8TBB1 261-371): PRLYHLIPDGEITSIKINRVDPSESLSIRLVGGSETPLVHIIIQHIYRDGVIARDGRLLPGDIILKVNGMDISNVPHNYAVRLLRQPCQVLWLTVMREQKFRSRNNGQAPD
NHERF4_4, Q86UT5, sequence (Q86UT5 464-550): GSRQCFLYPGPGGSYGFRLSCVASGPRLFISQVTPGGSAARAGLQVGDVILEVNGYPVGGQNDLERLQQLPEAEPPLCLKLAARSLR
FRMPD4, Q14CM0, sequence (Q14CM0 67-160): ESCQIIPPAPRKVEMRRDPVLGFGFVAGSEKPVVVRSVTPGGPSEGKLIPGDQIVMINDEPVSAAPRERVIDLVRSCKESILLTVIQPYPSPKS
IL16_3, Q14005, sequence (Q14005 1107-1207): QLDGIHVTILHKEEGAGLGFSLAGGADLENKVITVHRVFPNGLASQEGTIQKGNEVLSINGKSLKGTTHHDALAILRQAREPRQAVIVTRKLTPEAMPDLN
DLG1_3, Q12959, sequence (Q12959 457-571): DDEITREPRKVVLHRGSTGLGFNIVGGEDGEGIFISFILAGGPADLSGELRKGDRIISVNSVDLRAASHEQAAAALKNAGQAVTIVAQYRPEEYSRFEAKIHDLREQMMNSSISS
GRID2IP_2, A4D2P6, sequence (A4D2P6 272-370): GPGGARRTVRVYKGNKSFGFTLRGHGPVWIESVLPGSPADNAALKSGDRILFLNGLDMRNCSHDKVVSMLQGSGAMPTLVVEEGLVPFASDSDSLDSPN
TJP1_3, Q07157, sequence (Q07157 416-512): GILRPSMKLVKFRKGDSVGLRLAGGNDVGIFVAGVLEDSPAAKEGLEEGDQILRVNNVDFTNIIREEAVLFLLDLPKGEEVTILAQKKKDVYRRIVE
LNX1_2, Q8TBB1, sequence (Q8TBB1 371-470): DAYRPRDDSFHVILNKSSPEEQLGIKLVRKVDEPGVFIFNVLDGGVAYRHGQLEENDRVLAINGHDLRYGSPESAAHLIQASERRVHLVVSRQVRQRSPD
DLG1_2, Q12959, sequence (Q12959 314-412): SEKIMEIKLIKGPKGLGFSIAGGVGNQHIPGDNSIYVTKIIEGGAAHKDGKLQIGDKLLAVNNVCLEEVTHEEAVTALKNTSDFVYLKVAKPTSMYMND

pKd [1] | pKd [2] | pKd [3] | pKd [4] | pKd [5] | pKd [6] | pKd [7] | pKd [8] | pKd [9] | pKd [10] | pKd [11] | pKd [12] | pKd [13] | pKd [14] | pKd [15] | pKd [16] | pKd [17] | pKd [18] | pKd [19] | pKd [20] | Binder | further results
4.36 | below the threshold | below the threshold | below the threshold | 3.53 | 4.39 | 3.74 | 3.68 | below the threshold | 3.78 | 4.68 | 4.26 | 4.13 | below the threshold | below the threshold | 3.58 | below the threshold | below the threshold | below the threshold | below the threshold | QYPGSPDSWV [PKP4, Q99569] | pKd [21]: below the threshold; pKd [22]: 3.55; pKd [23]: below the threshold; pKd [24]: below the threshold; pKd [25]: 3.98; pKd [26]: 4.28
below the threshold | below the threshold | below the threshold | below the threshold | 3.77 | below the threshold | below the threshold | below the threshold | below the threshold | below the threshold | below the threshold | below the threshold | 3.49 | below the threshold | below the threshold | below the threshold | below the threshold | below the threshold | 3.79 | below the threshold | LGHTPFVDEL [UQCRC2, P22695] | pKd [21]: below the threshold; pKd [22]: below the threshold; pKd [23]: below the threshold; pKd [24]: below the threshold; pKd [25]: below the threshold; pKd [26]: 3.5
4.35 | 3.7 | below the threshold | below the threshold | below the threshold | below the threshold | below the threshold | below the threshold | below the threshold | below the threshold | 4.49 | 4.03 | 4.36 | below the threshold | below the threshold | below the threshold | below the threshold | 3.64 | 4.05 | below the threshold | RPGFASESKV [ADRB1, P08588] | pKd [21]: below the threshold; pKd [22]: below the threshold; pKd [23]: below the threshold; pKd [24]: below the threshold; pKd [25]: 3.7; pKd [26]: 4.21
below the threshold | below the threshold | below the threshold | below the threshold | below the threshold | 5.21 | below the threshold | below the threshold | below the threshold | below the threshold | below the threshold | below the threshold | below the threshold | 3.67 | below the threshold | below the threshold | below the threshold | below the threshold | below the threshold | below the threshold | DFRHKSSFVI [JAM3, Q9BX67] | pKd [21]: below the threshold; pKd [22]: below the threshold; pKd [23]: below the threshold; pKd [24]: below the threshold; pKd [25]: below the threshold; pKd [26]: below the threshold
below the threshold | below the threshold | below the threshold | below the threshold | below the threshold | below the threshold | below the threshold | below the threshold | below the threshold | below the threshold | below the threshold | below the threshold | below the threshold | below the threshold | below the threshold | below the threshold | 3.88 | below the threshold | below the threshold | below the threshold | GQETPLNTFC [MAP7D2, Q96T17] | pKd [21]: below the threshold; pKd [22]: below the threshold; pKd [23]: below the threshold; pKd [24]: below the threshold; pKd [25]: below the threshold; pKd [26]: below the threshold
